These results are taken from patent publication US20230124851A1 (INHIBRX LNC, published 2023).

Experiment [1] concerns the target T1, human B7H3 (CD276) on the cell surface (human, UniProt Q5ZPR3 29-534).
T1 construct: B7H3 on A375 and other B7H3-positive or transfected cells
T1 sequence: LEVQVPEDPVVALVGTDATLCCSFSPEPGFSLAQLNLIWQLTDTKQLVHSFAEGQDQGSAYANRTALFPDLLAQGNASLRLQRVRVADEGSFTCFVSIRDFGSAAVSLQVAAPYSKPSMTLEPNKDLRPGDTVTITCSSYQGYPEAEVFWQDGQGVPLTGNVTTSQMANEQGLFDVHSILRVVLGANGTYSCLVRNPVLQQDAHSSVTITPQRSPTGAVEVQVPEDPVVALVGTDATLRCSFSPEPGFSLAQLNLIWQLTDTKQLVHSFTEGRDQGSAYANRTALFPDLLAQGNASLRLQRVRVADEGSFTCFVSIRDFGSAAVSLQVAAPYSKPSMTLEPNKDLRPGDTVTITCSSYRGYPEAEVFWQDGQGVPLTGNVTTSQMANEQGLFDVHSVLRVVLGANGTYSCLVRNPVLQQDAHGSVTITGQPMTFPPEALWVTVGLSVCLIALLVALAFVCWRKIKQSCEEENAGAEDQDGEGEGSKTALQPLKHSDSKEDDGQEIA
Description: flow cytometry on A375 cells (B7H3+), anti-human Fc secondary. The procedure: (§1) Binding of exemplary multispecific constructs containing an antigen-binding domain directed against B7H3 were assessed for binding to B7H3 positive A375 tumor cells or primary T-cells. The constructs were generated containing antigen-binding domain(s) that were either sdAbs or a FABs, and that were positioned either only N-terminal to the Fc or both N-terminal to the Fc and C-terminal to the anti-CD3 binding domain (see FIGS. 30A and 30C and Table E5). Among the various formats of constructs tested included: sdAb-Fc-dsFV-sdAb (cx3072, cx5952) sdAb-Fc-FV (cx6079), sdAb-Fc-dsFV (cs6080, cx6081), MAB-FV (cx5067) and MAB-dsFV (cx6083, cx6084), where the FV represents the anti-CD3 binding domain composed of VH and VL domain pairs and “ds” notes disulfide stabilized via an engineered interdomain disulfide bond.
(§2) Binding was assessed as described above via flow cytometry using a fluorophore-conjugated anti-human Fc secondary antibody. cx3072 bound to A375 cells with high affinity (FIG. 31A) but not to isolated T-cells (FIG. 31B). […] The B7H3 -targeting sdAb containing constructs (cx5952, cx6079, cx6080, and cx6081) bound to B7H3 positive cells with similar affinities (depicted in FIG. 31E), with cx5952 displaying higher maximal binding. cx6079, cx6080 and cx6081 contain two identical B7H3-targeting sdAbs, whereas cx5952, and cx3072 contain two distinct B7H3-targeting sdAb that bind different epitopes. The MAB-FV, cx5067, contains two identical B7H3-targeting FAB domains.
A general note: Flow cytometry measures light scatter and fluorescence of single cells or particles in a stream.

Experiment [2] concerns the target T2, CD3 on the surface of human T cells (human, UniProt P07766 23-207).
T2 construct: whole, on cells; Part of the CD3/TCR complex on cells; also called CD3 epsilon
Put plainly: flow cytometry on primary human T cells, anti-human Fc secondary. The procedure:
as §1, §2

Positions count from the first letter of the chain named.

T2 sequence (P07766 23-207): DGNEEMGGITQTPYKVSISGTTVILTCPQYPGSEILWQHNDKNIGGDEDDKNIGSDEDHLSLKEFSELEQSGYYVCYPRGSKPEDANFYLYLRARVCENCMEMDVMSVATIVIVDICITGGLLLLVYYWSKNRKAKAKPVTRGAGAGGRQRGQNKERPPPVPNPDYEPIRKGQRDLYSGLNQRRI

B1: cx5952 (bispecific antibody)
chain 1: EVQLVESGGGEVQPGGSLRLSCAASGFSFSSNVMMWVRQAPGKGLEWVSTIYSSGTGTFYAESVKGRFTISRDNAKNTLYLQMSSLRPEDTAVYYCATSGPVRGWGPRSQGTLVTVKPPGGGGDKTHTCPPCPAPGGPSVFLFPPKPKDTLMISRTPEVTCVVVDVSHEDPEVKFNWYVDGVEVHNAKTKPREEQYNSTYRVVSVLTVLHQDWLNGKEYKCKVSNKALPAPIEKTISKAKGQPREPQVYTLPPCRDELTKNQVSLWCLVKGFYPSDIAVEWESNGQPENNYKTTPPVLDSDGSFFLYSKLTVDKSRWQQGNVFSCSVMHEALHNHYTQKSLSLSPGGGGGGSGGGGGSGGGGGSEVQLVESGGGLVQPGGSLRLSCAASGFTFNTYAMNWVRQAPGKCLEWVARIRSKYNNYATYYADSVKGRFTISRDDAKNTLYLQMSSLRAEDTAVYYCVRHGNFGNSYVSWFAYWGQGTLVTVKPGGGGEVQLVESGGGEVQPGGSLRLSCAASGFTFSSYHMSWFRQAPGKQRELVATSHHGGTTNYAGSVKGRFTISRDNAKNTVYLQMNTLRAEDTAVYYCKADHGYQGRGYWGQGTLVTVKP
chain 2: DKTHTCPPCPAPGGPSVFLFPPKPKDTLMISRTPEVTCVVVDVSHEDPEVKFNWYVDGVEVHNAKTKPREEQYNSTYRVVSVLTVLHQDWLNGKEYKCKVSNKALPAPIEKTISKAKGQPREPQVCTLPPSRDELTKNQVSLSCAVKGFYPSDIAVEWESNGQPENNYKTTPPVLDSDGSFFLVSKLTVDKSRWQQGNVFSCSVMHEALHNRYTQKSLSLSPGGGGGGSGGGGGSGGGGGSQAVVTQEPSLTVSPGGTVTLTCGSSTGAVTTSNYANWVQQKPGQAFRGLIGGTNKRAPGVPARFSGSLLGGKAALTISGAQPEDEADYYCALWYSNHWVFGCGTKLEIK
notes: also called sdAb-Fc-dsFV-sdAb
For the molecule B1, the binding result in experiment [1] was “binds”; in experiment [2], “no binding”.

B2: cx5067 (bispecific antibody)
chain 1: EVQLVESGGGLVQPGGSLRLSCAASGFTFSSFGMHWVRQAPGKGLEWVAYISSDSSAIYYADTVKGRFTISRDNAKNSLYLQMNSLRDEDTAVYYCGRGRENIYYGSRLDYWGQGTTVTVSSASTKGPSVFPLAPSSKSTSGGTAALGCLVKDYFPEPVTVSWNSGALTSGVHTFPAVLQSSGLYSLSSVVTVPSSSLGTQTYICNVNHKPSNTKVDKKVEPKSCDKTHTCPPCPAPPVAGPSVFLFPPKPKDTLMISRTPEVTCVVVDVKHEDPEVKFNWYVDGVEVHNAKTKPREEEYNSTYRVVSVLTVLHQDWLNGKEYKCKVSNKALPAPIEKTISKAKGQPREPQVYTLPPSREEMTKNQVSLTCDVSGFYPSDIAVEWESDGQPENNYKTTPPVLDSDGSFFLYSKLTVDKSRWEQGDVFSCSVMHEALHNHYTQKSLSLSPGKGGGGSGGGGSGGGGSEVQLVESGGGLVQPGGSLRLSCAASGFTFSTYAMNWVRQAPGKGLEWVGRIRSKYNNYATYYADSVKGRFTISRDDSKNTLYLQMNSLRAEDTAVYYCVRHGNFGDSYVSWFAYWGQGTLVTVSS
chain 2: EVQLVESGGGLVQPGGSLRLSCAASGFTFSSFGMHWVRQAPGKGLEWVAYISSDSSAIYYADTVKGRFTISRDNAKNSLYLQMNSLRDEDTAVYYCGRGRENIYYGSRLDYWGQGTTVTVSSASTKGPSVFPLAPSSKSTSGGTAALGCLVKDYFPEPVTVSWNSGALTSGVHTFPAVLQSSGLYSLSSVVTVPSSSLGTQTYICNVNHKPSNTKVDKKVEPKSCDKTHTCPPCPAPPVAGPSVFLFPPKPKDTLMISRTPEVTCVVVDVKHEDPEVKFNWYVDGVEVHNAKTKPREEQYNSTYRVVSVLTVLHQDWLNGKEYKCKVSNKALPAPIEKTISKAKGQPREPQVYTLPPSREQMTKNQVKLTCLVKGFYPSDIAVEWESNGQPENNYKTTPPVLDSDGSFFLYSKLTVDKSRWQQGNVFSCSVMHEALHNHYTQKSLSLSPGKGGGGSGGGGSGGGGSQAVVTQEPSLTVSPGGTVTLTCGSSTGAVTTSNYANWVQQKPGKSPRGLIGGTNKRAPGVPARFSGSLLGGKAALTISGAQPEDEADYYCALWYSNHWVFGGGTKLTVL
light: DIQLTQSPSFLSASVGDRVTITCKASQNVDTNVAWYQQKPGKAPKALIYSASYRYSGVPSRFSGSGSGTDFTLTISSLQPEDFATYYCQQYNNYPFTFGQGTKLEIKRTVAAPSVFIFPPSDEQLKSGTASVVCLLNNFYPREAKVQWKVDNALQSGNSQESVTEQDSKDSTYSLSSTLTLSKADYEKHKVYACEVTHQGLSSPVTKSFNRGEC
notes: anti-CD3 Fv not disulfide-stabilized; also called MAB-FV
Regarding B2, the binding result in experiment [1] is “binds”; in experiment [2], “no binding”.

B3: cx6084 (bispecific antibody, human IgG1, kappa)
chain 1: B2 chain 1 with S496N, G510C, G515A, S543A, N552S, D572N, S590K, S591P
chain 2: B2 chain 2 with K510Q, S511A, P512F, G568C, T573E, V574I, L575K
light: B2 light
notes: disulfide-stabilized anti-CD3 Fv; also called MAB-dsFV
In the case of B3, the binding result in experiment [1] is reported as “binds”; in experiment [2], “no binding”.

B4: cx6083 (bispecific antibody)
chain 1: B2 chain 1 with G510C
chain 2: B2 chain 2 with G568C
light: B2 light
notes: as for B3
B4: the values for the binding result in experiment [1] and in experiment [2] were “binds” and “no binding”, respectively.

B5: cx6079 (bispecific antibody)
chain 1: EVQLVESGGGEVQPGGSLRLSCAASGFSFSSNVMMWVRQAPGKGLEWVSTIYSSGTGTFYAESVKGRFTISRDNAKNTLYLQMSSLRPEDTAVYYCATSGPVRGWGPRSQGTLVTVKPPGGGGDKTHTCPPCPAPPVAGPSVFLFPPKPKDTLMISRTPEVTCVVVDVKHEDPEVKFNWYVDGVEVHNAKTKPREEEYNSTYRVVSVLTVLHQDWLNGKEYKCKVSNKALPAPIEKTISKAKGQPREPQVYTLPPSREEMTKNQVSLTCDVSGFYPSDIAVEWESDGQPENNYKTTPPVLDSDGSFFLYSKLTVDKSRWEQGDVFSCSVMHEALHNHYTQKSLSLSPGKGGGGSGGGGSGGGGSEVQLVESGGGLVQPGGSLRLSCAASGFTFSTYAMNWVRQAPGKGLEWVGRIRSKYNNYATYYADSVKGRFTISRDDSKNTLYLQMNSLRAEDTAVYYCVRHGNFGDSYVSWFAYWGQGTLVTVSS
chain 2: EVQLVESGGGEVQPGGSLRLSCAASGFSFSSNVMMWVRQAPGKGLEWVSTIYSSGTGTFYAESVKGRFTISRDNAKNTLYLQMSSLRPEDTAVYYCATSGPVRGWGPRSQGTLVTVKPPGGGGDKTHTCPPCPAPPVAGPSVFLFPPKPKDTLMISRTPEVTCVVVDVKHEDPEVKFNWYVDGVEVHNAKTKPREEQYNSTYRVVSVLTVLHQDWLNGKEYKCKVSNKALPAPIEKTISKAKGQPREPQVYTLPPSREQMTKNQVKLTCLVKGFYPSDIAVEWESNGQPENNYKTTPPVLDSDGSFFLYSKLTVDKSRWQQGNVFSCSVMHEALHNHYTQKSLSLSPGKGGGGSGGGGSGGGGSQAVVTQEPSLTVSPGGTVTLTCGSSTGAVTTSNYANWVQQKPGKSPRGLIGGTNKRAPGVPARFSGSLLGGKAALTISGAQPEDEADYYCALWYSNHWVFGGGTKLTVL
notes: also called sdAb-Fc-FV
For the molecule B5, the figures for the binding result in experiment [1] and in experiment [2] were “binds” and “no binding”, respectively.

B6: cx6081 (bispecific antibody)
chain 1: B5 chain 1 with S394N, G408C, G413A, S441A, N450S, D470N, S488K, S489P
chain 2: B5 chain 2 with K408Q, S409A, P410F, G466C, T471E, V472I, L473K
notes: also called sdAb-Fc-dsFV
B6: the binding result is “binds” in experiment [1] and “no binding” in experiment [2].

B7: cx6080 (bispecific antibody)
chain 1: B5 chain 1 with G408C
chain 2: B5 chain 2 with G466C
notes: also called cs6080; sdAb-Fc-dsFV
Regarding B7, the binding result in experiment [1] is “binds”; in experiment [2], “no binding”.
